Results on five substances are retold here after paper PMC10403523.

Series [1] concerns yeast SWI/SNF complex (WT) (Saccharomyces cerevisiae). As to the kind of experiment: EMSA. To be noted: apparent KD, Kd EMSA: 6.7 nM DNA or nucleosome, 1.3-23 nM SWI/SNF, 4% native PAGE (79:1), Methods: prebinding 30 C, 15 min, gel in 0.5x TBE, binding buffer, salt and pH not …. In general terms: A gel shift assay detects complexes by their altered migration in electrophoresis.
Series [2] has the same test system. As to the kind of experiment: competition. To be noted: EMSA competition against 601 DNA; Kd EMSA: 6.7 nM DNA or nucleosome, 1.3-23 nM SWI/SNF, 4% native PAGE (79:1); Methods: prebinding 30 C, 15 min, gel in 0.5x …; binding buffer, salt and pH not.
Series [3] concerns the target 29N59 mononucleosome: recombinant Xenopus laevis histone octamer on 601 DNA with 29 and 59 bp of flanking DNA (Xenopus laevis). As to the kind of experiment: native gel or EMSA; apparent KD; 6.7 nM 29N59 nucleosomes, WT or ΔAT SWI/SNF varied from 1.3 to 23 nM; 4% native polyacrylamide gel (79:1).

Take 29N59 nucleosome: the Kd in series [1] (6.7 nM nucleosome, recombinant Xenopus laevis histone octamer) is 7.67 nM.
With 235 bp 601 DNA, the Kd in series [1] (6.7 nM DNA) came to 7.87 nM.
pUC19 plasmid: in series [2], the inhibition constant Ki (usually the dissociation constant of the complex between target and ligand, obtained from inhibition or displacement) amounted to 12 nM.
On to “yeast SWI/SNF complex with both AT-hooks of Snf2 deleted (from UniProt P22082 1-1703; P18480 1-905; Q12406 1-477; P09547 1-1314; P18888 1-332)”, for which, in series [3], the Kd was 20.5 nM.
The same measure, in the same setting: the same measure for “yeast SWI/SNF complex, wild type (from UniProt P22082 1-1703; P18480 1-905; Q12406 1-477; P09547 1-1314; P18888 1-332)”: 7.67 nM.
